Results as given in patent US20170306038A1 (published 2017).
Positions count from the first letter of the chain named.

Assays:
[1] = target: T1, human GITR on cells (human, UniProt Q9Y5U5 27-241); test: FACS competition on HEK293 cells stably expressing hGITR: human GITR ligand titrated first, then 4 nM MAB7 as the competitor read out with PE anti-human
T1 construct: also called hGITR; 293 cells stably transfected with human GITR
T1 sequence: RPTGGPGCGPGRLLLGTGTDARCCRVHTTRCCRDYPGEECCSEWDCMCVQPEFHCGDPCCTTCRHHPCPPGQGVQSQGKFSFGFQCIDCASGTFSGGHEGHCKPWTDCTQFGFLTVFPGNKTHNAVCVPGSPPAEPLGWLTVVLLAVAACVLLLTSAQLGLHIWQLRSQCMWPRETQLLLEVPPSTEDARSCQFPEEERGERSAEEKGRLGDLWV
Experimental: The ability of MAB to block ligand binding was assessed using HEK293 NFκB reporter parental cells and hGITR stable cells were used in competition binding assays and FACS analysis. Briefly, harvested cells were plated 1×10⁶ cells per mL, 100 μL per well to a 96 well round bottom FACS plate (Corning), then resuspended in 200 μL of cold FACS buffer (1×PBS+1% FBS-HI+0.1% sodium azide) per well. […] Plates were incubated for 1 hour on ice protected from light, cells washed, then prepared 4 nM isotype control or MAB solutions were prepared and added to appropriate wells at 100 μL per well and plates were incubated for 1 hour on ice protected from light, cells washed, then PE-conjugated goat-anti-human detection antibody (Jackson ImmunoResearch) prepared at 1:100 dilution in FACS buffer was added at 100 μL per well and plates were incubated for 30 minutes on ice protected from light. Cells were washed in FACS buffer then cells were fixed with 100 μL per well of BD CytoFix (BD Biosciences) and incubated for further 15 minutes on ice protected from light.

[2] = target: cyno GITR (cGITR) (cynomolgus monkey); test: Biacore
[3] = target: cyno GITR (cGITR) (cynomolgus monkey); test: Biacore; remark: listed apart in the source
[4] = target: T2, FAS; test: specificity ELISA on bacterial lysates with TNFRSF members, HisGrab nickel plate
T2 construct: not shown: His tag, implied by the HisGrab nickel plate; The construct's exact limits are also wanting
T2 chain: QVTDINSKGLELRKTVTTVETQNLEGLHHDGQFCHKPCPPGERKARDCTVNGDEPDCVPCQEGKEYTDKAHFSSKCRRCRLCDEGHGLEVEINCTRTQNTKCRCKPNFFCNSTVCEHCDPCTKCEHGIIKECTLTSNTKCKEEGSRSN
Experimental: For the specificity ELISA, a crude cell lysate was made from bacteria expressing members of the TNFRSF family. To prevent nonspecific binding to the plate 50 μL of 5% BSA was added per mL of bacterial lysate. […] The plate was then rinsed three times with PBST, then MAB was diluted to 0.5 μg/mL in 10% FBS in PBS and 100 μL was added to each well. The plate was incubated for 1 hour at room temperature and then rinsed three times with PBST. Anti-human kappa antibody (Sigma #A7164) conjugated to HRP was diluted 1:5000 in 1:1 PBST: 10% FBS in PBS and 100 μL added to each well. The plate was incubated for 1 hour at room temperature, and then washed three times with PBST. 100 μL of SureBlue TMB substrate was added to each well and the plate was incubated for about 10 min at room temperature before stopping the reaction with 100 μL/well of 2N H₂SO₄.

B1: recombinant human GITR ligand (GITR-L) (ligand, UniProt Q9UNG2 52-177, looked up)
chain: ETAKEPCMAKFGPLPSKWQMASSEPPCVNKVSDWKLEILQNGLYLIYGQVAPNANYNDVAPFEVRLYKNKDMIQTLTNKSKIQNVGGTYELHVGDTIDLIFNSEHQVLKNNTYWGIILLANPQFIS
- IC50 (read off the curve) [1]: ~0.2 molar ratio (Human GITR Ligand to MAB7)

B2: MAB4 (IgG1 kappa) (antibody, V domains shown)
VH: EVQLVESGGGLVQSGGSLRLSCAASGFSLSSYGVDWVRQAPGKGLEWVGVIWGGGGTYYASSLMGRFTISRDNSKNTLYLQMNSLRAEDTAVYYCAKHAYGHDGGFAMDYWGQGTLVTVSS
VL: EIVMTQSPATLSVSPGERATLSCRASESVSSNVAWYQQRPGQAPRLLIYGASNRATGIPARFSGSGSGTDFTLTISRLEPEDFAVYYCGQSYSYPFTFGQGTKLEIKR
- fold lower binding affinity for cyno GITR against human GITR [2]: 2 to 3 fold
- Kd [3]: 1.78 nM
- binding result [4]: no binding (tested: 0.5 µg/mL (not on the sheet))

B3: MAB5 (IgG1 kappa) (antibody, V domains shown)
VH: B2 VH with V48L, A60T
VL: B2 VL
- fold lower binding affinity for cyno GITR against human GITR [2]: 2 to 3 fold
- Kd [3]: 1.87 nM
- binding result [4]: no binding (tested: 0.5 µg/mL (not on the sheet))

B4: MAB7 (IgG1 kappa) (antibody, V domains shown)
VH: B2 VH with K97R
VL: B2 VL
notes: MAB4 with the glycation site KH changed to RH
- Kd [3]: 3.67 nM
